For experiment [1], the target named is TOM complex (translocase of the mitochondrial outer membrane), human, endogenous core complex (human (endogenous in HeLa or U2OS)) (UniProt O96008).
For experiment [2] the target is unchanged. Nature of the experiment: native gel or EMSA; competition: mitochondria preincubated on ice for 10 min with 20 µg pSu9-DHFR-His, 1 mM methotrexate and 1 mM NADPH, depolarized, then import of radiolabeled PINK1; BN-PAGE, 700 kDa species quantified (clogger and TOM complex). (In general: Mobility shift assays separate free from complexed probe on a gel.)

In turn, pSu9-DHFR-His had an integration of radiolabeled TOM40 into the MOM of mitochondria preincubated with pSu9-DHFR, % of untreated mitochondria in experiment [1] of 60%. The PINK1 association with the TOM complex left with pSu9-DHFR, % of control in experiment [2] is under 40%.

These data come from PMC9110474.
